In patent publication US20250326867A1, “De novo designed chlorophyll special pair proteins” (University of Washington, priority 2024, published 2025):

T1: O32-15B
T1 construct: Homotrimeric component of the O32-15 octahedral nanocage (8 trimers per cage); also called C3 trimer; trimeric component
T1 chain: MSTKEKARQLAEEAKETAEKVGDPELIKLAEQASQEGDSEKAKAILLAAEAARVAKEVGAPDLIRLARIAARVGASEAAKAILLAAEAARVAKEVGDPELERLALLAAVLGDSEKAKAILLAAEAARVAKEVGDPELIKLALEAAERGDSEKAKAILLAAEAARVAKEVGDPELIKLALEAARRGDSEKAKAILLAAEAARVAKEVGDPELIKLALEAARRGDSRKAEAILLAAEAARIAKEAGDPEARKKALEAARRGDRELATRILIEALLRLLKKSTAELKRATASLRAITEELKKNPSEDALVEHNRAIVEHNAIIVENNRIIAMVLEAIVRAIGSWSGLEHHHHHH

B1: O32-15A (designed binder)
chain: MDEEFKFLATEAKMLITAAERLAGTDPRLQEMVALIKKELEQAERTFRNGDKSEAQRQLEFVLTAARAVMNVAAAANAAGTDPLLKAMVDAILWRLKEAIRTFQNGDEEAETQLRFVLRAAIAVAVVAAALVLAGTDPELQEMVEQIKDLLISAFMAGEKALTQLLFVAWAAHAVAMIAAAANLAGPRLQQQVKEILEKLKEAIETFQKGDEEQAFRQLAEVLAEAALVALRAALTNLEHHHHHH
notes: Homodimeric component of the O32-15 octahedral nanocage (12 dimers per cage); also called C2 dimer (based on SP2); chlorophyll dimer component
B2: SP3: de novo designed chlorophyll special pair protein, C2 homodimer (protein)
chain: SGSSEELARESAEAAWRLAQAGTRLMLAWIRGDLKEIAEALIELARAVQELARVAKEYGNDELAKTAALLAAHVAMLAILVLIRAIKEGDDEVRELAKTAIKLASTAAKIVLDALPTAEEVRQITLLAKLAEEAADKKNEDSALAVGIAAAAVLLALLALEAAQKAGIEEAEKGARLLLKLAMDAARKKNPEEALAVFNAALDVSIALKLLQSAKRAGSEETRKLAEEMLRQALERARK
modifications: homodimer; VARIANT 1..4 optionally absent
notes: de novo designed chlorophyll special pair protein, C2 homodimer
B3: SP2: de novo designed chlorophyll special pair protein, C2 homodimer (protein)
chain: SGSGSSDEEFKFLATEAKMLITAAERLAGTDPELQEMVALIKKELEQAERTFRNGDKSEAQRQLEFVLTAARAVMNVAAAANAAGTDPELIEMVLRILKQLKEAIRTFQNGDQEEAETQLRFVLRAAIAVAVVAAALVLAGTDPELQEMVKQILEELKQAIETFARGDKEKALTQLLFVAWAAHAVAMIAAAANLAGTDPRLQQQVKEILEKLKEAIETFQKGDEEQAFRQLAEVLAEAALVALRAALTN
modifications: homodimer; VARIANT 1..6 optionally absent; VARIANT 33 optionally absent; VARIANT 89..100 optionally absent; VARIANT 111..115 optionally absent; VARIANT 151..169 optionally absent; VARIANT 197..199 optionally absent
notes: as for B2
B4: SP2-ZnPPa: SP2 protein with bound Zn pheophorbide a (ZnPPa), energy transfer acceptor (protein)
chain: B3 chain

Key:
[1] = target: T1, O32-15B; assay: negative-stain EM of two-component octahedral nanocage
Protocol: Transmission negative-stain electron microscopy (nsEM) and image processing: SEC purified cage fractions were diluted to about 0.5 μM (monomeric component concentration) for negative-stain EM characterization. Briefly, on a glow-discharged formvar/carbon supported 400-mesh copper grid (Ted Pella, Inc.), 6 μL of protein sample were drop-casted for 2 mins. The grid was blotted and stained with 3 μL of 2% uranyl formate, blotted again, and stained with 3 μL of uranyl formate for 20 s before final blotting. Micrographs of stained samples were taken on a 120 kV Talos™ L120C transmission electron microscope. All nsEM datasets were collected using the EPU software and processed by CryoSparc™ (Punjani et al. 2017) with contrast transfer function (CTF) correction. All the particle picks were 2D classified for 20 iterations into 50 classes. Particles from selected classes were used for building the ab-initio initial model. The initial model was homogeneously refined using C₁ and the corresponding O symmetry.

[2] = ZnPPaM binding titration monitored by UV/vis absorbance; conditions: absorption titration
Protocol: FIG. 9. SP2-ZnPPaM binding titration monitored by UV/vis absorbance. (a) UV/vis titration of ZnPPaM into a solution of 20 μM SP2 dimer ([…] of SP2 monomer) in 150 mM NaCl, and 10 mM Tris at pH 8. Samples were prepared separately with 0.25 to 4 equivalents (eq.) of ZnPPaM per SP2 protein dimer (2.0 eq. ZnPPaM would be a stoichiometric amount). The y-axis is the molar extinction coefficient, &, or OD divided by ZnPPaM concentration. ZnPPaM was added to protein samples from a DMSO stock solution. Samples were incubated overnight for 20 hours at 4° C. before measurement at room temperature. (b) The same data as in panel (a) zoomed in on the Qy region. Arrows indicate the direction & changes as a function of increasing ZnPPaM concentration. (c) Fitted spectra and (d) species concentration vs. molar ratio of ligand to protein from fitting of the absorbance spectra in panels (a) and (b). During fitting, only the P+L→PL and PL+L→PL2 reactions were considered, and ZnPPaM aggregation was disregarded. (P represents SP2 dimer protein and L represents ZnPPaM ligand). Curve fitting gives dissociation constants (KDs) of 110 nM and 2.0 μM for KD1 and KD2, respectively. Fittings were performed with an algorithm that combines singular value decomposition and least squares regression, as implemented in ReactLab™ Equilibria. (e) Full spectra and (f) the Qy region of a second titration with SP2 dimer protein concentration held at 2.0 μM. At 2.0 μM protein, the intensities of the spectral features at 669 and 692 nm depend upon the molar ratio of protein to ZnPPaM in a manner similar to the 20 μM protein titration shown in panels (a) and (b).
(§1) At longer wavelengths in the UV/visible/near-infrared (UV/vis/NIR), CD spectra can serve as a convenient probe of excitonic interactions between Chls. […] When Chl dimers are arranged in chiral protein environments, however, excitonic interactions can produce delocalized transitions with chiral character, yielding CD signals that are stronger and conservative (i.e., composed of a bisignate doublet that integrates to zero). […] Curve fitting of the CD titrations yields SP2-ZnPPaM dissociation constants (KDs) of 300 nM for KD1 and 2.5 μM for KD2, and SP3-ZnPPaM KDs of 800 nM for KD1 and 1.0 μM for KD2 (data not shown). Due to the lower CD signal of the SP1-ZnPPaM complex, we instead used absorbance and fluorescence to measure the SP1-ZnPPaM interaction. Absorption titrations yielded curve fits with KD1 and KD2 values of 290 nM and 430 nM for SP1, 110 nM and 2.0 μM for SP2, and 350 nM and 940 nM for SP3, respectively (FIG. 9).
Protein-chlorophyll sample preparation: Zn pheophorbide a methyl ester (ZnPPaM) was purchased from Frontier Scientific, Inc. ZnPPaM stock solutions were prepared in dimethyl sulfoxide (DMSO) or methanol to concentrations between 200 μM and 1 mM. ZnPPaM concentrations were determined using mass measurements and by using the known absorptivity of Zn pheophytin a, which has a similar absorbance spectrum and an extinction coefficient €659 nm of 77,300 M^−1 cm^−1 in 80% acetone/20% deionized water (Jones et al. 1976). Ultraviolet/visible (UV/vis) absorbance spectra were collected using a V-750 spectrophotometer with a 1 nm bandwidth and 400 nm/min scanning speed. Protein-ZnPPaM complexes were prepared by slowly adding freshly-prepared ZnPPaM stock solution to protein solution in aqueous buffer at room temperature and incubating samples for several hours. Unbound ZnPPaM was removed by centrifugation to pellet precipitated ZnPPaM, sterile filtration using a 0.22 μm syringe filter, and/or running a PD-10 desalting column purification (Sephadex™ G-25 M resin, Cytiva Life Sciences).

[3] = ZnPPaM binding titration monitored by CD in the Qy region; conditions: curve fitting
Excerpt: as §1
Circular Dichroism (CD) spectroscopy: CD spectra were collected using a J-1500 spectrophotometer. For protein secondary structure assays, spectra were measured on samples of 0.2-0.4 mg/mL protein in 1 mm quartz cuvettes from 260 to 190 nm with a 1 nm bandwidth, 1 nm data interval, data integration time (DIT) of 1 second, and scanning speed of 50 nm/min. Thermal melts were monitored at 222 nm from 2 to 98° C. with a 2 nm bandwidth and 8 second DIT. UV/vis/near-infrared (NIR) CD transitions of protein-bound Chls were examined in the 800-300 nm region in 1 cm quartz cuvettes as averages of 10 scans using a 3 nm bandwidth, 1 nm data interval, DIT of 4 seconds, and scanning speed of 50 nm/min unless otherwise noted. UV/vis/NIR CD spectra shown in FIG. 2 were collected after sterile filtering with 0.22 μm filter and PD-10 desalting column purification (Sephadex™ G-25 M resin, Cytiva Life Sciences). Each spectrum represents the average of two independent sample preparations. Samples contained 8-15 μM protein (monomer concentration) with equimolar ZnPPaM, 150 mM NaCl, and 10 mM Tris buffer at pH 8. ZnPPaM dry powder was dissolved in methanol stock solutions immediately before adding to protein solutions. Samples were allowed to incubate for 8-16 hours at room temperature prior to measuring spectra.

[4] = ZnPPaM fluorescence titration, 1:1 binding model; conditions: 1:1 binding model of protein monomer to ZnPPaM, approximates average of KD1 and KD2, read-out: KD estimate
Excerpt: as §1

[5] = target: T2, CpcA-PEB (Synechocystis sp., UniProt Q54715); assay: Excitation energy transfer in 2D surface arrays by FLIM / time-resolved single photon counting; conditions: 485 nm laser
T2 construct: made in house; host or cells: E. coli
Excerpt: Native special pairs play a critical role as energy transfer acceptors for antenna proteins. To test whether our designed SP proteins participate in energy transfer with natural light-harvesting proteins, we analyzed excitation energy transfer in 2D surface arrays using Fluorescence Lifetime Imaging Microscopy (FLIM) in combination with nanoimprint lithography (Huang, Vasilev, and Hunter 2020) (FIG. 5). We selected the cyanobacterial antenna protein CpcA with attached phycoerythrobilin (PEB) as the energy transfer donor. CpcA-PEB was purified from E. coli, and gives a strong fluorescence emission maximum at 568 nm and emission extending past 630 nm (Barnett et al. 2017), overlapping with the excitation spectrum of Zn pheophorbide a (ZnPPa) when bound to SP2. […]
To quantify the strength of the interaction between CpcA-PEB and SP2-ZnPPa, we used time-resolved single photon counting. The surface was illuminated with a 485 nm picosecond laser filtered at 620 nm (donor emission), and photons were counted for individual pixels (surface resolution approximately 300 nm) over time, allowing both total fluorescence intensity and lifetime to be analyzed (FIG. 5d). In regions with only CpcA-PEB, fluorescence intensity was above 4000 arbitrary units (a.u.) and the lifetime was over 2 ns (τav=2058 ps). […]

[6] = P+L→PL, 150 mM NaCl, 10 mM Tris pH 8, read-out: dissociation constant KD1
[7] = first ZnPPaM binding (data not shown), read-out: dissociation constant KD1
[8] = second ZnPPaM binding (data not shown), read-out: dissociation constant KD2

T2 sequence (Q54715 whole entry): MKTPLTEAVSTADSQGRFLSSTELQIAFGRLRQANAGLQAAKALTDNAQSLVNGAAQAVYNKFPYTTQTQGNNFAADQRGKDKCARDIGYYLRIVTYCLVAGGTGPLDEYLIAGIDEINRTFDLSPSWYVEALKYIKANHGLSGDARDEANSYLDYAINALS

Molecule | binding result [1] | Kd [2, 6] | Kd ([2]; PL+L→PL2, read-out: dissociation constant KD2) | Kd [3, 7] | Kd [3, 8] | Kd [4] | Kd ([2]; PL+L→PL2, 150 mM NaCl, 10 mM Tris pH 8, read-out: dissociation constant KD2) | energy transfer efficiency of CpcA-PEB to SP2-ZnPPa ([5]; 2D arrays on poly-L-lysine glass, 620 nm filter) | donor fluorescence lifetime τav ([5]; regions with both CpcA-PEB and SP2-ZnPPa, 620 nm donor emission (CpcA-PEB only: 2058 ps))
B1 | binds |  |  |  |  |  |  |  | 
B2 |  | 350 nM | 940 nM | 800 nM | 1000 nM | 120 nM |  |  | 
B3 |  | 110 nM |  | 300 nM | 2500 nM | 480 nM | 2000 nM |  | 
B4 |  |  |  |  |  |  |  | 59% | 839 ps
